# Measured values from publication PMC6359379, “SLC35A5 Protein—A Golgi Complex Member with Putative Nucleotide Sugar Transport Activity” (International Journal of Molecular Sciences, 2019).
# B1: Solute carrier family 35 member A5 (SLC35A5), eGFP fusion (natural protein, human, UniProt Q9BS91 1-424, looked up)
# chain: MEKQCCSHPVICSLSTMYTFLLGAIFIALSSSRILLVKYSANEENKYDYLPTTVNVCSELVKLVFCVLVSFCVIKKDHQSRNLKYASWKEFSDFMKWSIPAFLYFLDNLIVFYVLSYLQPAMAVIFSNFSIITTALLFRIVLKRRLNWIQWASLLTLFLSIVALTAGTKTLQHNLAGRGFHHDAFFSPSNSCLLFRSECPRKDNCTAKEWTFPEAKWNTTARVFSHIRLGMGHVLIIVQCFISSMANIYNEKILKEGNQLTESIFIQNSKLYFFGILFNGLTLGLQRSNRDQIKNCGFFYGHSAFSVALIFVTAFQGLSVAFILKFLDNMFHVLMAQVTTVIITTVSVLVFDFRPSLEFFLEAPSVLLSIFIYNASKPQVPEYAPRQERIRDLSGNLWERSSGDGEELERLTKPKSDESDEDTF
# notes: SLC35A5, putative nucleotide sugar transporter; expressed from the plasmid pTag-GFP2-C-A5; FRET donor in every pair; In the pair A5 + A5 the second copy carried mRFP (pTag-RFP-C-SLC35A construct) in place of eGFP; also called pTag-GFP2-C-A5; source: HEK293T, transiently transfected, in living cells
# Target: B1
# Assay: FRET or BRET; FLIM/FRET in living HEK293T cells transiently co-transfected, analysed 48 h after transfection in FluoroBrite DMEM; SLC35A5-eGFP as donor, mRFP-tagged SLC35A proteins as acceptors; eGFP lifetime of the donor alone 2.70 ns
# Settings: partners not purified
row,Binder,eGFP fluorescence lifetime of the donor with the acceptor (donor alone 2.70 ns) [ns]
1,"UDP-N-acetylglucosamine transporter (SLC35A3), mRFP fusion (natural protein, UniProt Q9Y2D2 1-325, looked up, SLC35A3, UDP-N-acetylglucosamine transporter; expressed from a pTag-RFP-C-SLC35A construct; FRET acceptor; source: HEK293T, transiently transfected, in living cells) MFANLKYVSLGILVFQTTSLVLTMRYSRTLKEEGPRYLSSTAVVVAELLKIMACILLVYKDSKCSLRALNRVLHDEILNKPMETLKLAIPSGIYTLQNNLLYVALSNLDAATYQVTYQLKILTTALFSVSMLSKKLGVYQWLSLVILMTGVAFVQWPSDSQLDSKELSAGSQFVGLMAVLTACFSSGFAGVYFEKILKETKQSVWIRNIQLGFFGSIFGLMGVYIYDGELVSKNGFFQGYNRLTWIVVVLQALGGLVIAAVIKYADNILKGFATSLSIILSTLISYFWLQDFVPTSVFFLGAILVITATFLYGYDPKPAGNPTKA",2.35
2,"CMP-sialic acid transporter (SLC35A1), mRFP fusion (natural protein, UniProt P78382 1-337, looked up, SLC35A1, CMP-sialic acid transporter; expressed from a pTag-RFP-C-SLC35A construct; FRET acceptor; The legend writes 'mRFP/SLC35A proteins'; also called mRFP/SLC35A1; source: HEK293T, transiently transfected, in living cells) MAAPRDNVTLLFKLYCLAVMTLMAAVYTIALRYTRTSDKELYFSTTAVCITEVIKLLLSVGILAKETGSLGRFKASLRENVLGSPKELLKLSVPSLVYAVQNNMAFLALSNLDAAVYQVTYQLKIPCTALCTVLMLNRTLSKLQWVSVFMLCAGVTLVQWKPAQATKVVVEQNPLLGFGAIAIAVLCSGFAGVYFEKVLKSSDTSLWVRNIQMYLSGIIVTLAGVYLSDGAEIKEKGFFYGYTYYVWFVIFLASVGGLYTSVVVKYTDNIMKGFSAAAAIVLSTIASVMLFGLQITLTFALGTLLVCVSIYLYGLPRQDTTSIQQGETASKERVIGV",2.29
3,"SLC35A4, mRFP fusion (natural protein, UniProt Q96G79 1-324, looked up, SLC35A4, member of the SLC35A subfamily; expressed from a pTag-RFP-C-SLC35A construct; FRET acceptor; source: HEK293T, transiently transfected, in living cells) MSVEDGGMPGLGRPRQARWTLMLLLSTAMYGAHAPLLALCHVDGRVPFRPSSAVLLTELTKLLLCAFSLLVGWQAWPQGPPPWRQAAPFALSALLYGANNNLVIYLQRYMDPSTYQVLSNLKIGSTAVLYCLCLRHRLSVRQGLALLLLMAAGACYAAGGLQVPGNTLPSPPPAAAASPMPLHITPLGLLLLILYCLISGLSSVYTELLMKRQRLPLALQNLFLYTFGVLLNLGLHAGGGSGPGLLEGFSGWAALVVLSQALNGLLMSAVMKHGSSITRLFVVSCSLVVNAVLSAVLLRLQLTAAFFLATLLIGLAMRLYYGSR",2.39
4,"UDP-galactose transporter (SLC35A2), ER splice variant, mRFP fusion (natural protein, UniProt P78381-1 1-396, looked up, SLC35A2, UDP-galactose transporter, the second splice variant, localised mainly to the ER (A2-ER); expressed from a pTag-RFP-C-SLC35A construct; FRET acceptor; also called second splice variant of SLC35A2; source: HEK293T, transiently transfected, in living cells) MAAVGAGGSTAAPGPGAVSAGALEPGTASAAHRRLKYISLAVLVVQNASLILSIRYARTLPGDRFFATTAVVMAEVLKGLTCLLLLFAQKRGNVKHLVLFLHEAVLVQYVDTLKLAVPSLIYTLQNNLQYVAISNLPAATFQVTYQLKILTTALFSVLMLNRSLSRLQWASLLLLFTGVAIVQAQQAGGGGPRPLDQNPGAGLAAVVASCLSSGFAGVYFEKILKGSSGSVWLRNLQLGLFGTALGLVGLWWAEGTAVATRGFFFGYTPAVWGVVLNQAFGGLLVAVVVKYADNILKGFATSLSIVLSTVASIRLFGFHVDPLFALGAGLVIGAVYLYSLPRGAAKAIASASASASGPCVHQQPPGQPPPPQLSSHRGDLITEPFLPKLLTKVKGS",2.31
5,"UDP-galactose transporter (SLC35A2), Golgi splice variant, mRFP fusion (natural protein, UniProt P78381-2 1-393, looked up, expressed from a pTag-RFP-C-SLC35A construct; FRET acceptor; also called first splice variant of SLC35A2; source: HEK293T, transiently transfected, in living cells) MAAVGAGGSTAAPGPGAVSAGALEPGTASAAHRRLKYISLAVLVVQNASLILSIRYARTLPGDRFFATTAVVMAEVLKGLTCLLLLFAQKRGNVKHLVLFLHEAVLVQYVDTLKLAVPSLIYTLQNNLQYVAISNLPAATFQVTYQLKILTTALFSVLMLNRSLSRLQWASLLLLFTGVAIVQAQQAGGGGPRPLDQNPGAGLAAVVASCLSSGFAGVYFEKILKGSSGSVWLRNLQLGLFGTALGLVGLWWAEGTAVATRGFFFGYTPAVWGVVLNQAFGGLLVAVVVKYADNILKGFATSLSIVLSTVASIRLFGFHVDPLFALGAGLVIGAVYLYSLPRGAAKAIASASASASGPCVHQQPPGQPPPPQLSSHRGDLITEPFLPKSVLVK",2.24

# Target: the molecule itself
# Assay: as above
# Settings: not given
row,Binder,eGFP fluorescence lifetime of the donor with the acceptor (donor alone 2.70 ns) [ns]
1,B1,2.51
